This assay addresses His6-PopA_(R357G) labelled with Atto-488 (Caulobacter crescentus). Put plainly: MST.

The substance “His6-SmrF (from UniProt A0A0H3C860 1-122) (natural protein)” showed a Kd of 5.1 µM.

The term Kd denotes the free concentration of one partner at which half of the binding sites on the other are occupied at equilibrium, for simple one-to-one binding. High values mean lower affinity, low ones higher affinity.

Source of the values: paper PMC8020655.
